Data as given in article PMC9067936, “SHIP164 is a chorein motif lipid transfer protein that controls endosome–Golgi membrane traffic” (The Journal of Cell Biology, 2022).

B1: MBP-SHIP164 fusion (MBP fused to the N-terminus of SHIP164_(Δ901–1099)) (natural protein)
chain: not shown
notes: SHIP164 (UHRF1BP1L), human, codon-optimised ORF; lacks residues 901-1099; Probably made in Expi293F and purified as m1, possibly with a 3xFLAG tag as well; not shown: MBP (E. coli MBP residues 27–392 and two additional alanines), N-terminal, kept
B2: 3XFLAG-SHIP164_(Δ901–1099) (natural protein)
chain: not shown
notes: SHIP164 (UHRF1BP1L), human, codon-optimised ORF from Genscript; construct lacking the predicted unstructured segment, residues 901-1099; Seen as a tail-to-tail dimer in vitro; also called 3×FLAG-SHIP164_(Δ901–1099); UHRF1BP1L; source: Expi293F, transfected, purified (anti-FLAG M2 resin, gel filtration on Superdex 200); not shown: 3xFLAG, N-terminal, kept

Biological target: the molecule itself
Assay: negative-stain electron microscopy; 2D class averages of negatively stained purified protein (50 nM, 2% uranyl acetate, carbon-coated copper grids); MBP densities used to locate the N-termini

Protein | stoichiometry N
B1 | 2
B2 | 2
